In data set [1] the target is T1, GST-DMP1 fusion protein (GST fused to residues 176-761 of DMP1).
T1 chain: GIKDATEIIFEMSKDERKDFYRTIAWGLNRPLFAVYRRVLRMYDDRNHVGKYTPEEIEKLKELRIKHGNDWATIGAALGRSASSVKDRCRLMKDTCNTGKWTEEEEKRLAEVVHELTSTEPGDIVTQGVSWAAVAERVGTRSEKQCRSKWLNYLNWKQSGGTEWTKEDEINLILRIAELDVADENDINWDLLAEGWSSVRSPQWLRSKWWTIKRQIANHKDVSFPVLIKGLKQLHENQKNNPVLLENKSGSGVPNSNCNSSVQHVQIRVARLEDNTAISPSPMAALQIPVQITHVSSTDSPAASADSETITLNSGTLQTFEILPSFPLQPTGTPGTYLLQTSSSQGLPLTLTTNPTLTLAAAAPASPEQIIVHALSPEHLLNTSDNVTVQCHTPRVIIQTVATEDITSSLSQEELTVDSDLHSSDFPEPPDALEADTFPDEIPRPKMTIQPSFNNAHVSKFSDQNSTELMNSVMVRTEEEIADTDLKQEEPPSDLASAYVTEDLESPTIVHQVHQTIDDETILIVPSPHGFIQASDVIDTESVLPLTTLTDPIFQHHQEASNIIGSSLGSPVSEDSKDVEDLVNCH

The target of data set [2] is GST-RB fusion protein [GST: P08515].

Data on three proteins can be found in patent US20030028002A1, “Cyclin D binding factor, and uses thereof” (published 2003).

Sequence of GST-RB fusion protein [GST: P08515] (P08515 whole entry, looked up, the tested form may be a part): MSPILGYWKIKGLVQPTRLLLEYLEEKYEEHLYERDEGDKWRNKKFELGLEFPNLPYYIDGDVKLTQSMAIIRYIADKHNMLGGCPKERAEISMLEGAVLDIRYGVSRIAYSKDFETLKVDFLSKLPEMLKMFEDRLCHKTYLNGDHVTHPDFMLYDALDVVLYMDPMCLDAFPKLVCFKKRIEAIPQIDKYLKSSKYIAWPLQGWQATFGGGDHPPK

B1: cyclin D1-CDK4 complex (protein)
chain 1: MEHQLLCCEVETIRRAYPDTNLLNDRVLRAMLKTEETCAPSVSYFKCVQKEIVPSMRKIVATWMLEVCEEQKCEEEVFPLAMNYLDRFLSLEPLKKSRLQLLGATCMFVASKMKETIPLTAEKLCIYTDNSIRPEELLQMELLLVNKLKWNLAAMTPHDFIEHFLSKMPEADENKQTIRKHAQTFVALCATDVKFISNPPSMVAAGSVVAAMQGLNLGSPNNFLSCYRTTHFLSRVIKCDPDCLRACQEQIEALLESSLRQAQQNVDPKATEEEGEVEEEAGLACTPTDVRDVDI
chain 2: MAATRYEPVAEIGVGAYGTVYKARDPHSGHFVALKSVRVPNGGAAGGGLPVSTVREVALLRRLEAFEHPNVVRLMDVCATSRTDRDIKVTLVFEHIDQDLRTYLDKAPPPGLPVETIKDLMRQFLSGLDFLHANCIVHRDLKPENILVTSNGTVKLADFGLARIYSYQMALTPVVVTLWYRAPEVLLQSTYATPVDMWSVGCIFAEMFRRKPLFCGNSEADQLGKIFDLIGLPPEDDWPREVSLPRGAFAPRGPRPVQSVVPEMEESGAQLLLEMLTFNPHKRISAFRALQHSYLHKEESDAE
Take B1: the “in vitro phosphorylation of the GST fusion protein by Sf9 lysates (32P)” value (“in vitro phosphorylation” below) in data set [1] was “lysates containing active cyclin D-CDK4 complexes phosphorylate both”; in data set [2], “Under equivalent conditions, GST-RB is always a preferred substrate”.

B2: cyclin D2-CDK4 complex (protein)
chain 1: MELLCCEVDPVRRAVPDRNLLEDRVLQNLLTIEERYLPQCSYFKCVQKDIQPYMRRMVATWMLEVCEEQKCEEEVFPLAMNYLDRFLAGVPTPKTHLQLLGAVCMFLASKLKETIPLTAEKLCIYTDNSVKPQELLEWELVVLGKLKWNLAAVTPHDFIEHILRKLPQQKEKLSLIRKHAQTFIALCATDFKFAMYPPSMIATGSVGAAICGLQQDDEVNTLTCDALTELLAKITHTDVDCLKACQEQIEALLLNSLQQFRQEQHNAGSKSVEDPDQATTPTDVRDVDL
chain 2: MAATRYEPVAEIGVGAYGTVYKARDPHSGHFVALKSVRVPNGGAAGGGLPVSTVREVALLRRLEAFEHPNVVRLMDVCATSRTDRDIKVTLVFEHIDQDLRTYLDKAPPPGLPVETIKDLMRQFLSGLDFLHANCIVHRDLKPENILVTSNGTVKLADFGLARIYSYQMALTPVVVTLWYRAPEVLLQSTYATPVDMWSVGCIFAEMFRRKPLFCGNSEADQLGKIFDLIGLPPEDDWPREVSLPRGAFAPRGPRPVQSVVPEMEESGAQLLLEMLTFNPHKRISAFRALQHSYLHKEESDAE
For the protein B2, the “in vitro phosphorylation” value in data set [1] is recorded as “lysates containing active cyclin D-CDK4 complexes phosphorylate both”; in data set [2] it was “Under equivalent conditions, GST-RB is always a preferred substrate”.

B3: cyclin D3-CDK4 complex (protein)
chain 1: MELLCCEGTRHAPRAGPDPRLLGDQRVLQSLLRLEERYVPRASYFQCVQKEIKPHMRKMLAYWMLEVCEEQRCEEDVFPLAMNYLDRYLSCVPTRKAQLQLLGTVCLLLASKLRETTPLTIEKLCIYTDQAVAPWQLREWEVLVLGKLKWDLAAVIAHDFLALILHRLSLPSDRQALVKKHAQTFLALCATDYTFAMYPPSMIATGSIGAAVLGLGACSMSADELTELLAGITGTEVDCLRACQEQIEAALRESLREAAQTAPSPVPKAPRGSSSQGPSQTSTPTDVTAIHL
chain 2: MAATRYEPVAEIGVGAYGTVYKARDPHSGHFVALKSVRVPNGGAAGGGLPVSTVREVALLRRLEAFEHPNVVRLMDVCATSRTDRDIKVTLVFEHIDQDLRTYLDKAPPPGLPVETIKDLMRQFLSGLDFLHANCIVHRDLKPENILVTSNGTVKLADFGLARIYSYQMALTPVVVTLWYRAPEVLLQSTYATPVDMWSVGCIFAEMFRRKPLFCGNSEADQLGKIFDLIGLPPEDDWPREVSLPRGAFAPRGPRPVQSVVPEMEESGAQLLLEMLTFNPHKRISAFRALQHSYLHKEESDAE
In the case of B3, the “in vitro phosphorylation” value in data set [1] is “different preparations of cyclin D3-CDK4 are routinely more active than D2- or D1-containing holoenzymes in phosphorylating DMP1”; in data set [2] it was “Under equivalent conditions, GST-RB is always a preferred substrate”.
